Measurements: article PMC12362618, “Development of the First Small-Molecule Inhibitor Targeting Oncostatin M for Treatment of Breast Cancer” (Journal of Medicinal Chemistry, 2025)

Biological target: T1, glycoprotein 130 (UniProt P40189 23-619)
T1 construct: gp130 (glycoprotein 130), bought recombinant protein; also called gp130; source: bought: R&D Systems
T1 sequence (looked up): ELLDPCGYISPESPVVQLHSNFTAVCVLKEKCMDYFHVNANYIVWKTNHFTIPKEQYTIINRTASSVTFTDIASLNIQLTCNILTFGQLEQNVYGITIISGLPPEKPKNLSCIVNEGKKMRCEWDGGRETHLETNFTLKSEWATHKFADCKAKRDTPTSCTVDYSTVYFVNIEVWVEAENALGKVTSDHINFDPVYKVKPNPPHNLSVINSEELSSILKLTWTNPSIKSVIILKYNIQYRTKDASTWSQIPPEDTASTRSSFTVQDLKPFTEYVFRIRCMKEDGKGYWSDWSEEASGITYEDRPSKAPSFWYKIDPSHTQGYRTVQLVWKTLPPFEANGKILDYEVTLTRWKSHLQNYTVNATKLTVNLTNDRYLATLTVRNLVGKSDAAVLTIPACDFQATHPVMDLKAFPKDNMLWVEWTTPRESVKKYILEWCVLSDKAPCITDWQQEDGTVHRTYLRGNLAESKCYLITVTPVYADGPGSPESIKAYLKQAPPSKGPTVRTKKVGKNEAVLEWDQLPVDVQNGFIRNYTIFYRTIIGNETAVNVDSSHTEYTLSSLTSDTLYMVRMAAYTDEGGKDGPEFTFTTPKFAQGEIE
Assay: SPR; kinetics; OSM immobilised by EDC/NHS coupling on a carboxyl mixed self-assembled monolayer gold chip (Reichert SR7000), increasing concentrations of gp130 injected; 25 °C; PBS with 0.005% Tween-20; 30 μL/min
Conditions: both partners purified

Kd: 20.5 nM
B1: Oncostatin M (ligand, human, UniProt P13725 26-221, looked up)
chain: AAIGSCSKEYRVLLGQLQKQTDLMQDTSRLLDPYIRIQGLDVPKLREHCRERPGAFPSEETLRGLGRRGFLQTLNATLGCVLHRLADLEQRLPKAQDLERSGLNIEDLEKLQMARPNILGLRNNIYCMAQLLDNSDTAEPTKAGRGASQPPTPTPASDAFQRKLEGCRFLHGYHRFMHSVGRVFSKWGESPNRSRR
notes: Oncostatin M, human; about 24 kDa; immobilised for SPR; The construct is only 'as previously described'; also called OSM; source: recombinant OSM, 'as previously described'
